Results from the supplement of paper PMC9170038.

Test system: MS2 coat protein
Experiment: apparent KD of MS2 coat protein; designed switch direction (-1 OFF switch, 1 ON switch): -1; higher = weaker reporter binding
How it was run: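 The buffer was Tris-HCl pH 7.5 with KCl, MgCl2, BSA, DTT, tRNA and Tween-20. In it, SNAP-549-labelled MS2 coat protein was titrated in doubling steps from 0.7 or 1.5 nM to 3 µM over chip-bound RNA switches transcribed by stalled E. coli RNA polymerase on Illumina chips. Apparent KD is the per-design median over clusters of curve fits to normalised fluorescence.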

[1] = input ligand: microRNA oligo, concentration not stated
[2] = Eterna round: R95, input ligand: FMN 200 uM
[3] = Eterna round: R95, input ligand: microRNA oligo, concentration not stated
[4] = Eterna round: R95, input ligand: none

Sequence | apparent KD of MS2 coat protein (input ligand: FMN 200 uM) [nM] | apparent KD of MS2 coat protein [1] [nM] | apparent KD of MS2 coat protein (input ligand: none) [nM] | apparent KD of MS2 coat protein [2] [nM] | apparent KD of MS2 coat protein [3] [nM] | apparent KD of MS2 coat protein [4] [nM]
AUAAUACAUGUAGGAUAUGCGUGGCGAAGCUAUGCAGAAGGACAUGAGGAUCACCCAUGUCUUAGCGUCUGCGUACAGAUGCUA [JL eng1 1.35 mod 2] (Eterna round: R96, puzzle: Exclusion NG 1) | 27.9 | 12.1 | 16.4 | – | – | –
CUUGUUUAUGUAGGAUAUGCCUGGCGUGCCUUUGCAGAAGGACAUGAGGAUCACCCAUGUAACAUGAGGCUCACCCAUGUCGCC [salish99_ExNG1_r04_107] (Eterna round: R96, puzzle: Exclusion NG 1) | 142 | 94.8 | 153 | – | – | –
GGGCUUAAAGGAUAUGCAAGGAGCCACAUGAGGAUCACCCAUGUACAACCUCAGUCCCUGGUAGAAGGUUACGCAA [whoooo] (Eterna round: R97, puzzle: Exclusion 5) | 35 | – | 30.6 | – | – | –
AGUAACUAUCACGAAAGUGAUAGUUACAAAACAAGUGAAACAUGAGGAUCACCCAUGUCCUCAUUUGCUCGUCUUAU [Sensor 3 - 2] (puzzle: Sensor v3, turn-off variant 2) | – | – | – | 118 | 257 | 189
UAAGUUUACCGAGGAUAUGGUUUUUCCUAUUAACCAGAAGGCGGACUCAACAUGAGGAUCACCCAUGUAUAAAGGGUAUUAGGU [JR_ExcNG1_Sub044] (Eterna round: R96, puzzle: Exclusion NG 1) | 88.5 | 68 | 74.2 | – | – | –
CCAGGCAGUGUGAGGAUAUGCUGGUCCUUGGAUCAGCAGAAGGCACAUGAGGAUCACCCAUGUGAAUAGCUUGG [JL bmx4 3.25] (puzzle: Brourd's mod of Exclusion 4) | – | – | – | 105 | 20.5 | 21.8
GGAACGACAGGAUAUACAUGAGGAUCACCCAUGUGAGGAAGAGUAAAGUGUGAAGGAGGUAGAAGGGUCAAGAA [AK-MS2ROC-r4-exclusion3-3] (Eterna round: R97, puzzle: Exclusion 3) | 63.6 | – | 38.8 | – | – | –
AAGAAACGAGGAUAUACAAUUAAGAGAGAGAAGGAAAUGAGACAUGAGGAUCACCCAUGUAGAAGGCGUAAGAA [JR_Exclu2_Sub082] (puzzle: Exclusion 2) | – | – | – | 27.6 | 31.1 | 26.5
AGGGAGUAAGGAUAUCGGAAAGGACACGAAAGUGACAAAGACGAGAAGGUACAUGAGGAUCACCCAUGUAAAAA [milkweed 24] (Eterna round: R96, puzzle: Exclusion 4) | – | 18.2 | – | – | – | –
AGUAACUAUCACGAAAGUGAUAGUUACAAUAGCAGUGAAACAUGAGGAUCACCCAUGUCCUCAUUUGCUCGUCUUAU [Sensor 3 - 23] (puzzle: Sensor v3, turn-off variant 2) | – | – | – | 49.6 | 566 | 61.2
AAAGACAGAGGAUAUGCACGCCGACCCGGGCGGGAAGUCGGACAUGAGGAUCACCCAUGUAGAAGGCUGAGAAA [Exclss2-VII] (puzzle: Exclusion 2) | – | – | – | – | 10.5 | –
CGUCCACAUGAGGAUCACCCAUGUUAGGAUAUAAACGCCGUAGUCCAAGGACGGGCCUUUAGAAGGAGCGCGGG [Onaredgeso] (puzzle: Exclusion 1) | – | – | – | – | 12.3 | –
UAUUUAGCAAGCAGAUCCCACAUGAGGAUCACCCAUGUUUUCUGAAAAUAAAUUAAAAUAGCUGAAGCUCGUCUUAU [Winner reversed engineered 38] (Eterna round: R97, puzzle: Sensor, turn-off variant 1) | 139 | – | 137 | – | – | –
ACAGCUAUAGGAUAUACAGCGAGGAAACUUAGUGGGAUCGGACAUGAGGAUCACCCAUGUAGAAGGAUAGACGG [Eternabot (L2) Solution 85] (Eterna round: R97, puzzle: Exclusion 2) | 149 | – | 97.6 | – | – | –
GAUAGUGGAGGAUAUACAUGAGGAUCACCCAUGUGAAGUUGCGUAAGUGACCCUUCCUGUAGAAGGCCAAGCAA [Eternabot (Original) Solution 31] (Eterna round: R97, puzzle: Exclusion 3) | 256 | – | 31.9 | – | – | –
AGGUAACAUGAGGAUCACCCAUGUCAGGAUAUCAGUAAGAGGAGGAUAGAAUAGAGUAUGAGAAGGGACUAUAU [Excluse me! 23 - Jieux - Exclusion 1] (puzzle: Exclusion 1) | – | – | – | 48 | 40.7 | 47.8

Sequence | apparent KD of MS2 coat protein (input ligand: FMN 200 uM) [nM] | apparent KD of MS2 coat protein [1] [nM] | apparent KD of MS2 coat protein (input ligand: none) [nM] | apparent KD of MS2 coat protein [2] [nM] | apparent KD of MS2 coat protein [3] [nM] | apparent KD of MS2 coat protein [4] [nM]
UUUUAACAAGCGAGGUCCUACAUGAGGAUCACCCAUGUAUGUCAUGGAUUCCAUGGUCUUUUUGCUCGUCUUGUGUG [jl TITIN mod 8] (Eterna round: R97, puzzle: Sensor, turn-off variant 1) | 103 | – | 105 | – | – | –
GGUAGAGAGCAGGAUAUCUUGGGUAAGUAUCGUAGAGAAGGGCUCACAUGAGGAUCACCCAUGUGGUCCAAGAU [JL Dibiri mod 05] (puzzle: Exclusion 6) | – | – | – | – | 14.2 | –
AUAAUGUCAGGAUAUCAGUCGUACAGCUGCGGCUGUACGACUGAGAAGGGACAUGAGGAUCACCCAUGUGGUCA [E4/6-A3] (Eterna round: R97, puzzle: Exclusion 4) | 20.2 | – | 236 | – | – | –
UUUAAGGGAAUUAAGAUCACAUGAGGAUCACCCAUGUAUAUAUAGGAUAUCAGCUCGUUUAGAGCUGAGAAGGAUAUAUACAUA [ExNG3/6-A2] (Eterna round: R96, puzzle: Exclusion NG 3) | 162 | 83.8 | 155 | – | – | –
CCACGGUGAGGAUAUCAAAGAUUGCGCUCGGAAGGUCAAUUUGAGAAGGCACAUGAGGAUCACCCAUGUUAGCG [Eternabot (L2) Solution 40] (Eterna round: R97, puzzle: Exclusion 4) | 29.8 | – | 34.6 | – | – | –
UUUGUUUAUGUAGGAUAUGCCUGGCGUGCCUUUGCAGAAGGACAUGAGGAUCACCCAUGUAACAUGAGGCUCACCCAUGUCGCC [salish99_ExNG1_r04_113] (Eterna round: R96, puzzle: Exclusion NG 1) | 134 | 91.6 | 165 | – | – | –
AUUGAUAGCACAGGAUAUUGAGAUUUGAAUUGACAAGAAGGGUGUACAUGAGGAUCACCCAUGUAAUGGGAGAGUGGUUGAUUA [JR_ExcNG1_Sub002] (Eterna round: R96, puzzle: Exclusion NG 1) | 365 | 324 | 582 | – | – | –
CAUACACAUGAGGAUCACCCAUGUGAGGAUAUGCGUACGUUGUCCGUAGGCGACGUGCGCAGAAGGCGCGAGGU [JL-ex1-3.16 Eli mod] (puzzle: Exclusion 1) | – | – | – | – | 28.4 | –
UGUUGUUGAUAGGAUAUACAGGUAGGAGUAGGAGUAGAAGGAUCUACAUGAGGAUCACCCAUGUAGGAGUGAGA [JR_E6_Sub002] (puzzle: Exclusion 6) | – | – | – | – | 14.9 | –
AGGAUGUUAGGAUAUCGAAGGUUGUGGCAGGCGGGAAUUUGCGAGAAGGAACAUGAGGAUCACCCAUGUGAAAU [JR_Exclu4_Sub044] (puzzle: Exclusion 4) | – | – | – | – | 19.7 | –
GCAGCGUAUGUAGGAUAUCGGUCAGUUUCUGAUCGAGAAGGACAUGAGGAUCACCCAUGUAUAUUCUAGCGUGAGCUAGGCUGC [JL ENG1 3.70] (Eterna round: R96, puzzle: Exclusion NG 1) | – | 14.3 | – | – | – | –
CGAGAGCGAGGAUAUACACAACUCCUCACUGUCAAGAAAGGACAUGAGGAUCACCCAUGUAGAAGGUGCAAAAC [Quries] (puzzle: Exclusion 2) | – | – | – | 215 | 125 | 120
GCUUCGGCAGGAUAUACAAUGAAGUUGAGAAAUCGGCUUCGACAUGAGGAUCACCCAUGUAGAAGGGUUGAAGU [-26.3, -24 kcal, A 32% 3, 3 bis] (Eterna round: R97, puzzle: Exclusion 2) | 36.3 | – | 48.6 | – | – | –
UAUUACAAGCGAGAUCCUAACAUGAGGAUCACCCAUGUGCUCGUCUCAUAUAGGACUAUCACGAAAGUGAUAGUCCA [Level Boss var2-01] (puzzle: Sensor v3, turn-off variant 1) | – | – | – | 21.5 | 140 | 15.2
UGUGUGAGACAGGAUAUGCUGGAUGUGUGGCGGGUAGAAGGGUCUACAUGAGGAUCACCCAUGUGGCCGGUUGG [Ex6 #69] (Eterna round: R97, puzzle: Exclusion 6) | 15.8 | – | 18.9 | – | – | –
CUAAUAUAUCAGGAUAUGAUUUUAUGUGUUGGAUCAGAAGGGAUAACAUGAGGAUCACCCAUGUUGUGGAGUGA [JR_Ex6_Sub037] (Eterna round: R97, puzzle: Exclusion 6) | 271 | – | 112 | – | – | –
